For one assay, the target named is VWF (Homo sapiens, UniProt P04275). The assay is described as follows: VWF binding in the presence or absence of ristocetin (FIG. 7).
Another assay has as its target T1, platelet GPIbα (Homo sapiens, UniProt P07359).
T1 construct: endogenous in cells; host or cells: platelets in citrated whole blood
The assay is described as follows: Platelet adhesion to collagen III under constant shear, whole blood perfusion with OS-1. The settings on record: for Numbers of adherent platelets: 20 µg ml^-1 abciximab; for Platelet adhesion (relative, fluorescence intensity): collagen III, 1,500 s^-1. Format: cell-based. From the text: (§1) In-house designed PDMS microfluidic chips (FIG. 1A) contained channels of 52 µm height with a footprint of 300 µm x 46 mm (used in FIG. 1) or 300 µm x 17 mm. Selected channels incorporated a semi-circular stenotic section of various lengths (600 µm, 1000 µm or 2000 µm diameter), creating 80% lumen reduction. Chips were manufactured as previously reported (Westein et al. Proceedings of the National Academy of Sciences of the United States of America. 2013 Jan 22;110(4):1357-62). The produced PDMS chips were sealed with cover slips by hydrophobic interaction and coated with collagen by perfusion of collagen solution followed by static incubation at RT for at least 1 hr. Channels were rinsed with PBS and blocked with 2% BSA. Wall shear rates of the input flow for these microchannels were approximated from volumetric flow rates by using the equation, γ = 6Q/wh2. Herein, γ is the wall shear rate (s^-1), Q the volumetric flow rate (mls^-1), w the channel with (cm) and h the channel height (cm).
(§2) Citrated whole blood was incubated with DiOC6 (0.5 µg ml^-1) (Sigma-Aldrich Co, St. Louis, MO, USA) and drawn through microfluidic channels by a programmable syringe pump (Legato 130, KD Scientific, USA). Time-lapse z-stack images of platelet deposition were captured in multiple track, resonant scanning mode, using a Nikon A1R confocal microscope system. Platelet deposition was recorded over time (2 frames per minute) for up to 20 minutes and quantified in ImageJ using a Z-projection of the acquired signal.
For experiments measuring rolling velocities, anti αllbβ3 antibody (abciximab; 20 µg ml^-1)-treated whole blood containing 0.5 µg ml^-1 DiOC6 was drawn over a collagen type III-coated surface. Where indicated, blood was incubated with 30 µM aspirin (Sigma Aldrich, USA) and 300 µM 2-MeSAMP (Sigma-Aldrich Co, St. Louis, MO, USA) prior to blood perfusion. 10 second video clips of rolling platelets were recorded in the green fluorescent channel using an Olympus IX81 microscope system. Platelet rolling velocities were calculated using Diatrack v3.04 large scale particle tracking software (Vallotton et al. Microsc Microanal. 2013 Apr;19(2):451-60).

Assay [1] deals with thrombus formation / platelet deposition. The assay is described as follows: Thrombus formation on collagen type I in stenosis channels (SRG versus constant shear). Format: cell-based, human. Particulars: 15 minutes of blood flow; for Platelet deposition: 0.1 µM OS-1.
From the text: as §1, §2

Where no end group is shown, it is not given here.

As for “Cablivi: commercially available antibody (Cablivi®, Sanofi) binding VWF [reference compound]”, the “Mechanism of VWF binding (dependence on conformation)” value in the assay with VWF is given as “conformation independent”.
Regarding “OS-1: cyclic peptide, allosteric inhibitor of GPlbα/VWF interactions with sequence CTERMALHNLC, obtained from Auspep (also: cyclic peptide, ring not described) [reference compound]”, the “Numbers of adherent platelets” value with platelet GPIbα (3 µM OS-1, constant shear 2,000 s^-1) worked out at 11±4 platelets per field; with platelet GPIbα (3 µM OS-1, constant shear above 500 s^-1), 53±4 platelets per field. Also, the “Platelet adhesion (relative, fluorescence intensity)” value with platelet GPIbα (3 µM OS-1) is “completely abolished”; with platelet GPIbα (increasing concentrations of OS-1), “concentration dependently reduced”. Further, the Platelet deposition entry in assay [1] (constant shear) and in assay [1] (shear gradient conditions) was “inhibited” each time. The Thrombus formation entry in assay [1] (2000 s^-1 constant shear) is listed as “reduced thrombus formation”; in assay [1] (SRGs (187-1,500 s^-1)) it was “inhibited thrombus formation”; in assay [1] (SRGs (300-2,000 s^-1)) it was “inhibited thrombus formation”.

(Values after patent US20230227580A1, “ANTI-VWF ANTIBODIES AND USES THEREOF” (MONASH UNIVERSITY, priority 2020, published 2023).)
